Test results from patent US20230250154A1 (CYTONICS, published 2023).

T1: Cathepsin G (UniProt P08311 21-244)
T1 sequence (looked up): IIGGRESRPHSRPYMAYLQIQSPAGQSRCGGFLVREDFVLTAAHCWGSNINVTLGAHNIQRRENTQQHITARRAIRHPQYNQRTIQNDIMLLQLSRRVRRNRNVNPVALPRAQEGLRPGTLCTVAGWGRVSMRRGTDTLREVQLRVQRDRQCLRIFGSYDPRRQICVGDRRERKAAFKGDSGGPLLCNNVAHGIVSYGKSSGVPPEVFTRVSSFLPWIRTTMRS

T2: MMP1 (human, UniProt P03956 100-469, limits assumed)
T2 sequence (looked up): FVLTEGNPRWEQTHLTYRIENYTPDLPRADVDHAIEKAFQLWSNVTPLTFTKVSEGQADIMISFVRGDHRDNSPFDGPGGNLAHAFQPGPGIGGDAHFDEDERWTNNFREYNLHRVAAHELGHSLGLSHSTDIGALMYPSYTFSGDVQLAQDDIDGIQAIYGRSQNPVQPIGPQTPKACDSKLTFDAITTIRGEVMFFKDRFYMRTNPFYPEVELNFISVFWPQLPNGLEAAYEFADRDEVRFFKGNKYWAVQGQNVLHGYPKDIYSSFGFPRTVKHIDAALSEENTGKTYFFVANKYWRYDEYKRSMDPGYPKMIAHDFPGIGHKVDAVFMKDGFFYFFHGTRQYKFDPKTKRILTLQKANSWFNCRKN


How the values were obtained:
Assay in all cases: cell-based or functional assay
Elastase = target: Elastase
Cathepsin G = target: T1, Cathepsin G
MMP1 = target: T2, MMP1

Protease Inhibition (% of WT) (Elastase)	Protease Inhibition (% of WT) (Cathepsin G)	Protease Inhibition (% of WT) (MMP1)	Binder
300 % of WT	100 % of WT	300 % of WT	Variant A2M, bait region SEQ ID NO 135 (other) SVSGKPQYMVLVPSLLHTETTEKGCVLLSYLNETVTVSASLESVRGNRSLFTDLEAENDVLHCVAFAVPKSSSNEEVMFLTVQVKGPTQEFKKRTTVMVKNEDSLVFVQTDKSIYKPGQTVKFRVVSMDENFHPLNELIPLVYIQDPKGNRIAQWQSFQLEGGLKQFSFPLSSEPFQGSYKVVVQKKSGGRTEHPFTVEEFVLPKFEVQVTVPKIITILEEEMNVSVCGLYTYGKPVPGHVTVSICRKYSDASDCHGEDSQAFCEKFSGQLNSHGCFYQQVKTKVFQLKRKEYEMKLHTEAQIQEEGTVVELTGRQSSEITRTITKLSFVKVDSHFRQGIPFFGQVRLVDGKGVPIPNKVIFIRGNEANYYSNATTDEHGLVQFSINTTNVMGTSLTVRVNYKDRSPCYGYQWVSEEHEEAHHTAYLVFSPSKSFVHLEPMSHELPCGHTQTVQAHYILNGGTLLGLKKLSFYYLIMAKGGIVRTGTHGLLVKQEDMKGHFSISIPVKSDIAPVARLLIYAVLPTGDVIGDSAKYDVENCLANKVDLSFSPSQSLPASHAHLRVTAAPQSVCALRAVDQSVLLMKPDAELSASSVYNLLPEKDLTGFPGPLNDQDDEDCINRHNVYINGITYTPVSSTNEKDMYSFLEDMGLKAFTNSKIRKPKMCPQLEQYEMHGPIPENFFGVSELEGRGSSEDLVVQIKEEEGLGSVEEPHTKLRKYFPETWIWDLVVVNSAGVAEVGVTVPDTITEWKAGAFCLSEDAGLGISSTASLRAFQPFFVELTMPYSVIRGEAFTLKATVLNYLPKCIRVSVQLEASPAFLAVPVEKEQAPHCICANGRQTVSWAVTPKSLGNVNFTVSAEALESQELCGTEVPSVPEHGRKDTVIKPLLVEPEGLEKETTFNSLLCPSGGEVSEELSLKLPPNVVEESARASVSVLGDILGSAMQNTQNLLQMPYGCGEQNMVLFAPNIYVLDYLNETQQLTPEIKSKAIGYLNTGYQRQLNYKHYDGSYSTFGERYGRNQGNTWLTAFVLKTFAQARAYIFIDEAHITQALIWLSQRQKDNGCFRSSGSLLNNAIKGGVEDEVTLSAYITIALLEIPLTVTHPVVRNALFCLESAWKTAQEGDHGSHVYTKALLAYAFALAGNQDKRKEVLKSLNEEAVKKDNSVHWERPQKPKAPVGHFYEPQAPSAEVEMTSYVLLAYLTAQPAPTSEDLTSATNIVKWITKQQNAQGGFSSTQDTVVALHALSKYGAATFTRTGKAAQVTIQSSGTFSSKFQVDNNNRLLLQQVSLPELPGEYSMKVTGEGCVYLQTSLKYNILPEKEEFPFALGVQTLPQTCDEPKAHTSFQISLSVSYTGSRSASNMAIVDVKMVSGFIPLKPTVKMLERSNHVSRTEVSSNHVLIYLDKVSNQTLSLFFTVLQDVPVRDLKPAIVKVYDYYETDEFAIAEYNAPCSKDLGNADYKDDDDKGASHHHHHH
300 % of WT	200 % of WT	300 % of WT	Variant A2M, bait region SEQ ID NO 131 (other) SVSGKPQYMVLVPSLLHTETTEKGCVLLSYLNETVTVSASLESVRGNRSLFTDLEAENDVLHCVAFAVPKSSSNEEVMFLTVQVKGPTQEFKKRTTVMVKNEDSLVFVQTDKSIYKPGQTVKFRVVSMDENFHPLNELIPLVYIQDPKGNRIAQWQSFQLEGGLKQFSFPLSSEPFQGSYKVVVQKKSGGRTEHPFTVEEFVLPKFEVQVTVPKIITILEEEMNVSVCGLYTYGKPVPGHVTVSICRKYSDASDCHGEDSQAFCEKFSGQLNSHGCFYQQVKTKVFQLKRKEYEMKLHTEAQIQEEGTVVELTGRQSSEITRTITKLSFVKVDSHFRQGIPFFGQVRLVDGKGVPIPNKVIFIRGNEANYYSNATTDEHGLVQFSINTTNVMGTSLTVRVNYKDRSPCYGYQWVSEEHEEAHHTAYLVFSPSKSFVHLEPMSHELPCGHTQTVQAHYILNGGTLLGLKKLSFYYLIMAKGGIVRTGTHGLLVKQEDMKGHFSISIPVKSDIAPVARLLIYAVLPTGDVIGDSAKYDVENCLANKVDLSFSPSQSLPASHAHLRVTAAPQSVCALRAVDQSVLLMKPDAELSASSVYNLLPEKDLTGFPGPLNDQDDEDCINRHNVYINGITYTPVSSTNEKDMYSFLEDMGLKAFTNSKIRKPKMCPQLEQYEMHGPEGEGEGEGISEDLVVQIPENFFGVKEEEGLGSVEEPHTKLRKYFPETWIWDLVVVNSAGVAEVGVTVPDTITEWKAGAFCLSEDAGLGISSTASLRAFQPFFVELTMPYSVIRGEAFTLKATVLNYLPKCIRVSVQLEASPAFLAVPVEKEQAPHCICANGRQTVSWAVTPKSLGNVNFTVSAEALESQELCGTEVPSVPEHGRKDTVIKPLLVEPEGLEKETTFNSLLCPSGGEVSEELSLKLPPNVVEESARASVSVLGDILGSAMQNTQNLLQMPYGCGEQNMVLFAPNIYVLDYLNETQQLTPEIKSKAIGYLNTGYQRQLNYKHYDGSYSTFGERYGRNQGNTWLTAFVLKTFAQARAYIFIDEAHITQALIWLSQRQKDNGCFRSSGSLLNNAIKGGVEDEVTLSAYITIALLEIPLTVTHPVVRNALFCLESAWKTAQEGDHGSHVYTKALLAYAFALAGNQDKRKEVLKSLNEEAVKKDNSVHWERPQKPKAPVGHFYEPQAPSAEVEMTSYVLLAYLTAQPAPTSEDLTSATNIVKWITKQQNAQGGFSSTQDTVVALHALSKYGAATFTRTGKAAQVTIQSSGTFSSKFQVDNNNRLLLQQVSLPELPGEYSMKVTGEGCVYLQTSLKYNILPEKEEFPFALGVQTLPQTCDEPKAHTSFQISLSVSYTGSRSASNMAIVDVKMVSGFIPLKPTVKMLERSNHVSRTEVSSNHVLIYLDKVSNQTLSLFFTVLQDVPVRDLKPAIVKVYDYYETDEFAIAEYNAPCSKDLGNADYKDDDDKGASHHHHHH
350 % of WT	100 % of WT	250 % of WT	Variant A2M, bait region SEQ ID NO 133 (other) SVSGKPQYMVLVPSLLHTETTEKGCVLLSYLNETVTVSASLESVRGNRSLFTDLEAENDVLHCVAFAVPKSSSNEEVMFLTVQVKGPTQEFKKRTTVMVKNEDSLVFVQTDKSIYKPGQTVKFRVVSMDENFHPLNELIPLVYIQDPKGNRIAQWQSFQLEGGLKQFSFPLSSEPFQGSYKVVVQKKSGGRTEHPFTVEEFVLPKFEVQVTVPKIITILEEEMNVSVCGLYTYGKPVPGHVTVSICRKYSDASDCHGEDSQAFCEKFSGQLNSHGCFYQQVKTKVFQLKRKEYEMKLHTEAQIQEEGTVVELTGRQSSEITRTITKLSFVKVDSHFRQGIPFFGQVRLVDGKGVPIPNKVIFIRGNEANYYSNATTDEHGLVQFSINTTNVMGTSLTVRVNYKDRSPCYGYQWVSEEHEEAHHTAYLVFSPSKSFVHLEPMSHELPCGHTQTVQAHYILNGGTLLGLKKLSFYYLIMAKGGIVRTGTHGLLVKQEDMKGHFSISIPVKSDIAPVARLLIYAVLPTGDVIGDSAKYDVENCLANKVDLSFSPSQSLPASHAHLRVTAAPQSVCALRAVDQSVLLMKPDAELSASSVYNLLPEKDLTGFPGPLNDQDDEDCINRHNVYINGITYTPVSSTNEKDMYSFLEDMGLKAFTNSKIRKPKMCPQLEQYEMHGPIPENFFGVEGEGEGESELEGRGSSEDLVVQIVEEPHTKLRKYFPETWIWDLVVVNSAGVAEVGVTVPDTITEWKAGAFCLSEDAGLGISSTASLRAFQPFFVELTMPYSVIRGEAFTLKATVLNYLPKCIRVSVQLEASPAFLAVPVEKEQAPHCICANGRQTVSWAVTPKSLGNVNFTVSAEALESQELCGTEVPSVPEHGRKDTVIKPLLVEPEGLEKETTFNSLLCPSGGEVSEELSLKLPPNVVEESARASVSVLGDILGSAMQNTQNLLQMPYGCGEQNMVLFAPNIYVLDYLNETQQLTPEIKSKAIGYLNTGYQRQLNYKHYDGSYSTFGERYGRNQGNTWLTAFVLKTFAQARAYIFIDEAHITQALIWLSQRQKDNGCFRSSGSLLNNAIKGGVEDEVTLSAYITIALLEIPLTVTHPVVRNALFCLESAWKTAQEGDHGSHVYTKALLAYAFALAGNQDKRKEVLKSLNEEAVKKDNSVHWERPQKPKAPVGHFYEPQAPSAEVEMTSYVLLAYLTAQPAPTSEDLTSATNIVKWITKQQNAQGGFSSTQDTVVALHALSKYGAATFTRTGKAAQVTIQSSGTFSSKFQVDNNNRLLLQQVSLPELPGEYSMKVTGEGCVYLQTSLKYNILPEKEEFPFALGVQTLPQTCDEPKAHTSFQISLSVSYTGSRSASNMAIVDVKMVSGFIPLKPTVKMLERSNHVSRTEVSSNHVLIYLDKVSNQTLSLFFTVLQDVPVRDLKPAIVKVYDYYETDEFAIAEYNAPCSKDLGNADYKDDDDKGASHHHHHH
